The text below walks through data of article PMC8965865.

In data set [1] the target is T1, mFur (A28V Fur) A28V (Mycobacterium smegmatis mc251) (UniProt A0QXX6).
T1 sequence: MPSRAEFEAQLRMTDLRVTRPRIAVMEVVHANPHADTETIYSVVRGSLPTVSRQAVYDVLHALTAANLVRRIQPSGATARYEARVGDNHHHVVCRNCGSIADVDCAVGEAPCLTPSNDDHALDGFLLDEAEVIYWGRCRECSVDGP
The data set can be described thus: EMSA. To be noted: 20 mM Tris HCl pH 8.0, 1 mM DTT, 50 mM KCl, 5 mM MgCl2, 20 ul, 30 min at 30 C. Background: In EMSA bound probe runs differently from free probe, usually more slowly.

Data set [2] concerns the target T2, Fur (Mycobacterium smegmatis mc2155) (UniProt A0QXX6).
T2 sequence: T1 sequence with V28A
The data set can be described thus: EMSA. Conditions: 20 mM Tris HCl pH 8.0, 1 mM DTT, 50 mM KCl, 5 mM MgCl2, 20 ul, 30 min at 30 C.

Positions count from the first letter of the chain named.

With “CATCCGCAGTTGGGCTTCGAACTCCGCCCGAGAGGGCATGCCGCCCACCTTGCTCGCCCGATTGGACGCAGTCAAGTCTTTCTCGAATTCGGTATGTCGGTGCATGTCTCGCTCCGATCTGGGAGCTCGGATGGGAGGCGCAAGAGCGAGCCGCGTTCGGCCATTGTCGGCCGACCGCTTCTGCGCGCAGGCTTGCTGCGGCGGTTACCCCGATGTGCCCGACGCTATACCTCCAGCCGAAGAAATTTCTTGCAATGGTTGTTTTCCAACG (double strand) [fur promoter DNA fragment]”, the results for the binding result in data set [1] and in data set [2] were “binds more weakly” and “binds”, respectively.
